Measurements from article PMC2568053, “Relevance of the Diversity among Members of the Trypanosoma Cruzi Trans-Sialidase Family Analyzed with Camelids Single-Domain Antibodies” (PLoS ONE, 2008).

B1: VHHSI52 (VHH)
VHH: GGGLVQAGGSLRLSCAASGRTFYNYAMGWFRQAPGKEREFVAAISWSGGSTLYTDSVKGRFTISRANGQNTVYLQMNSLKPEDTAVYYCAADADAQPMGIIENYDYWGQG
notes: also called clone SI52; not shown: His6, C-terminal, kept
B2: VHHSI57 (VHH)
VHH: GGGLVQAGGSLRLSCAASGRTLYNYAMGWFRQAPGKEREFVAAISWSGGSTEYADSVKGRFTISRANAQNKVYLQMNSLKPEDTAVYYCAADADAQPMGVIENYDYWGQG
notes: also called clone SI57; not shown: His6, C-terminal, kept
B3: VHHSI96 (VHH)
VHH: GGGLVQAGGSLRLSCAASGPTFYNYAMGWFRQAPGKEREFVAAISWSGGSTYYADSVKGRFTISRANAHNTVYLQMNSLKPEDTAVYYCAADADAQPMGIIENYDYWGQG
notes: also called clone SI96; not shown: His6, C-terminal, kept
B4: VHHSI14 (VHH)
VHH: GGGLVQAGGSLRLSCAASGRTFYNYAMGWFRQAPGKEREFVAAISWSGGSTLYADSVKGRFTISRANAQNTVYLQMNKLKPEDTAVYYCAADADAQPMGVIENYDYWGQG
notes: also called clone SI14; VHHS14; not shown: His6, C-terminal, kept
B5: VHH clone WI58 (VHH)
VHH: GGGLVQAGGSLRLSCAASGLTLGNYAMGWFRQAPGKERELVAAISWSGGSTYYPDSVKGRFTISRDNAKNTVYLQMNSLKPEDTAVYYCAADGQLVPLPRLSDGVDYWGKG
notes: not shown: His6, C-terminal, kept

Assays:
[1] = biological target: recombinant TcTS clone TcTS-12 (Trypanosoma cruzi (Cl-Brener strain))
[2] = biological target: recombinant TcTS clone TcTS-15 (Trypanosoma cruzi (Cl-Brener strain))
[3] = biological target: recombinant TcTS clone TcTS-24 (Trypanosoma cruzi (Cl-Brener strain))
[4] = biological target: recombinant TcTS clone TcTS-46 (Trypanosoma cruzi (Cl-Brener strain))
[5] = biological target: recombinant TcTS clone TcTS-49 (Trypanosoma cruzi (Cl-Brener strain))
[6] = biological target: T1, recombinant Trypanosoma cruzi trans-sialidase TcTS611/2 (Trypanosoma cruzi, clone TcTS611/2 …, UniProt Q26966); assay: IAsys biosensor; details: both partners purified
T1 construct: Trypanosoma cruzi trans-sialidase (TcTS), clone 611/2: entire globular core of TcTS without SAPA repeats; also called recombinant TcTS; pTrcTS611/2

[7] = biological target: T1, recombinant Trypanosoma cruzi …; assay: cell-based or functional assay
[8] = biological target: T1, recombinant Trypanosoma cruzi …; assay: far-Western, overlay or dot blot; 300 ng of each His-tagged VHH spotted on nitrocellulose, probed with native TcTS611/2, revealed with rabbit anti-TcTS serum and HRP secondary; details: both partners purified

Row | Binder | other [1] [% inhibition] | other [2] [% inhibition] | other [3] [% inhibition] | other [4] [% inhibition] | other [5] [% inhibition] | Kd [6] [nM] | koff [6] [s⁻¹] | kon [6] [M⁻¹ s⁻¹] | other [7] [% inhibition] | binding result [8]
1 | B1 | 57.2 | 68.7 | 98 | 38.9 | 49 | 69 | 0.0103 | 149000 | 81.3 | 
2 | B2 | 57.2 | 81.2 | 98.4 | 31.7 | 51.1 | 86.3 | 0.0143 | 165000 | 83.3 | 
3 | B3 | 59.5 | 67.4 | 94.2 | 34.8 | 24.4 | 48.4 | 0.017 | 352000 | 80.5 | 
4 | B4 |  |  |  |  |  | 22.3 | 0.00265 | 119000 |  | 
5 | B5 |  |  |  |  |  |  |  |  |  | binds
